Here are results for three molecules from article PMC9675976, “Selfish uptake versus extracellular arabinoxylan degradation in the primary degrader Ruminiclostridium cellulolyticum, a new string to its bow” (Biotechnology for Biofuels and Bioproducts, 2022).

Data set [1] deals with XuaJ (Ruminiclostridium cellulolyticum, UniProt B8I0P3). The experiment in a line: Esterase activity of XuaJ. It is filed as biochemical. To be noted: 37 °C, 25 mM phosphate buffer pH 7, XuaJ 0.01 µM for 1-naphthyl acetate. Here is the method:
(§1) Esterase activity was tested using 1-Naphthyl acetate. Release of 1-Naphthol was monitored at 320 nm during 5 min at 37 °C in 25 mM phosphate buffer pH 7, with substrate final concentration ranging from 110 µM and 5.36 mM, and with XuaH (0.1 µM) or XuaJ (0.01 µM). Concentration of released 1-Naphthol during the first minute of the assay was determined based on 1-Naphthol standard curve.

Data set [2] concerns the target XuaH (Ruminiclostridium cellulolyticum, UniProt B8I0P1). The experiment in a line: Esterase activity of XuaH. Type of data set: biochemical. To be noted: 37 °C, 25 mM phosphate buffer pH 7, XuaH 0.1 µM for 1-naphthyl acetate. The protocol:
as §1

Substrate in data set [3]: OC[C@@H]1O[C@@H](O[C@H]2[C@H](O[C@@H]3CO[C@@H](O[C@@H]4COC(O)[C@H](O)[C@H]4O)[C@H](O)[C@H]3O)OC[C@@H](O)[C@@H]2O)[C@H](O)[C@H]1O
The experiment in a line: Enzyme activity of XuaD on AXOS (HPAEC-PAD). Type of data set: biochemical, Ruminiclostridium cellulolyticum. To be noted: other: 37 °C, substrate 0.05 to 8 mM. The protocol: (§2) XuaD, E, F, G (0.01 to 1 µM) were tested with different AXOS and/or XOS at 1 mM with incubation times varying from 5 min to 24 h. Enzymes (10 nM) were incubated at 37 °C for 5 min, kinetic parameters of XuaD were determined with both A^2,3XX and A^2XX, with sugar concentration varying from 0.05 to 8 mM, and XuaE with A^2,3XX with sugar concentration varying from 0.05 to 1 mM (at least 9 concentration point). Substrates and released products were quantified by high performance anion exchange chromatography coupled with pulsed amperometric detection on an ICS-3000 using a PA1 column (Thermo Scientific). Sugars were eluted with the buffers 0.1 M NaOH and 0.5 M sodium acetate + 0.1 M NaOH as the eluants A and B, respectively, using the multistep procedure as follows: isochratic separation (5 min, 95% A + 5% B), separation gradient (8 min, 10–37% B), column wash (2 min, 99% B), and subsequent column equilibration (2.5 min, 95% A + 5% B).

Substrate in data set [4]: OC[C@@H]1O[C@@H](O[C@@H]2[C@@H](O[C@@H]3O[C@@H](CO)[C@H](O)[C@H]3O)[C@H](O[C@@H]3CO[C@@H](O[C@@H]4COC(O)[C@H](O)[C@H]4O)[C@H](O)[C@H]3O)OC[C@H]2O)[C@H](O)[C@H]1O
The experiment in a line: Enzyme activity of XuaD on AXOS (HPAEC-PAD). Type of data set: biochemical, Ruminiclostridium cellulolyticum. To be noted: other: 37 °C, substrate 0.05 to 8 mM. The protocol:
as §2

Substrate in data set [5]: CC(=O)Oc1cccc2ccccc12
The experiment in a line: Esterase activity of XuaJ. Type of data set: biochemical, Ruminiclostridium cellulolyticum. The following applies: other: 37 °C, pH 7, substrate 110 µM to 5.36 mM. Here is the method: as §1

Sequence of XuaH (B8I0P1 entry or part of it): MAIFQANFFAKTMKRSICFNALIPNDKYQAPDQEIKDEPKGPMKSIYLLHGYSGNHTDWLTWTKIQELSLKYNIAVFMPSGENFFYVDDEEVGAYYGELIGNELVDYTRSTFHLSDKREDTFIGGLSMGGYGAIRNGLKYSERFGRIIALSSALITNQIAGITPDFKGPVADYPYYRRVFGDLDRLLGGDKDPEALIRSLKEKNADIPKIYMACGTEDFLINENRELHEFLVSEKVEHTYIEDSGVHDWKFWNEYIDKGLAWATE

Consider `CC(=O)Oc1cccc2ccccc12` [1-Naphthyl acetate], for which the “Specific activity (IU) of XuaJ” value in data set [1] is “IU: 21130.4 ± 676.4 IU/µmol of enzyme”. Moreover, the “Specific activity (IU) of XuaH” value in data set [2] is on record as “IU: 3504.6 ± 18.9 IU/µmol of enzyme”.

B1: XuaD (Ruminiclostridium cellulolyticum H10) (protein)
chain: MVKMILNADIKKGKINKNIYGHFSEHLGRCIYEGLWVGEDSEIPNINGFRTDVVEALKKMKIPVLRWPGGCFADEYHWVDGIGPKENRPCMVNTHWGGVVENNHFGTHEFLELCEMLGAEPYICGNVGSGTVHEMQQWVEYMTFDGKSPMADLRRANGKEEPWRVKYFGVGNENWGCGGNMTAEFYADQYKRYATYVRNFGDNKIYKIAGGASVDDYHWTEVLMREAGKQMDGLSVHYYTRISKDWSEQGSATEFDENHWFSVMQNALFTEELVVRHSNIMDKYDPEKKVGMIVDEWGTWFAVEPGTNPGFLYQQNTMRDALVAGIHLNIFNNHCDRVQMANIAQMVNVLQAVILTEGKKMLLTPTYHVFDMYKVHQGAELLSLDFESPEYAYNGEKVPQLSASSSVDSEGKIHVTICNLNPSADVNIDIDLRGVKSKSSTGKIITSNAMNAKNTFEETTNVTIKNFEDINLENNHISGKIPSKSVVLLEIV
Turning to B1, in data set [3], the Km result is recorded as “Km 1.4 ± 0.3 mM”, the kcat result is on record as “kcat 3408.0 ± 356.6 min^−1” and the kcat/Km result is “kcat/Km 2411.9 ± 303.3 min^−1 mM^−1”. Further, in data set [4], the Km result is reported as “Km 1.8 ± 0.2 mM”, the kcat entry was “kcat 4191.3 ± 117.3 min^−1” and the kcat/Km result is “kcat/Km 2388.2 ± 182.9 min^−1 mM^−1”.

B2: XuaJ (Ruminiclostridium cellulolyticum H10) (protein)
chain: MGIILNSNRPKIRLPRIISDGMVLQRNTDVKIWGWASPGEAVTVRFIGKAYHAFADDSGEWFVRLEQAKAGGPYDMYIETEESLEKITIKNILMGDVWLCSGQSNMEMKMDSVKDTYPDEIVHSCNDYIRHFLVPVKYDFEKPQTDLEAGIWEAANPESILDFTATGYFFALKLFEKYNIPIGLINASLGGSPAEAWLSENALREFPEHYESAKQLSNRDYLDKVLREDQESAEAWYTALNQNDEGLKSNDIPFHDTEYDAPFWQNIKVPSYWEDEGVGNFNGVVWFRKEIDIPSTLADKPARLVLGNIVDEDTAYINGIEVGTTPNQYITRKYSIQEGLLKEGKNTIVLRVVNTAGKGGFYKDKPYQLEIGDNIIELSGEWQYMIGAKSSPMPAPAFVQWRPLGLYNGMIAPVTSYSIKGFIWYQGESNTKNPGEYENLLKALIADWRQKWNMGNLPFLYVQLPNFMEASEIPMESSWAELREAQRRTLSVPCTGMAVAIDLGEWNDIHPVNKKDVGFRLALAAMKTAYRDKTIVAYGPMYQSGKIDGNRIILSFTDTGSGLTVKNGDRPEAFAIAGADRTFVRADAEIIGDSVAVWSEKVSHPVYVKYAWADNPADANLYNLEGLPASPFTTE
As to B2, in data set [5], the Km entry is listed as “Km: 0.2 ± 0.02 mM”, the kcat entry is given as “kcat: 21380.0 ± 440.0 min^-1” and the kcat/Km result was “kcat/Km: 88703.9 ± 7849.6 min^-1 mM^-1”.
